What was measured:
cMBD2 MBD (NMR) [1] = target: T1, cMBD2 MBD (NMR) (UniProt Q5EFL0 2-70); assay: NMR (HSQC, Nz-exchange); SPR running buffer: 10 mM HEPES pH 7.4, 50 mM NaCl, 3 mM MgCl2, 0.1 mM EDTA, 1 mM DTT, 0.1% BSA, 0.005% polysorbate 20 (samples prepared at pH 6.5); temperature not given; NMR buffer not given (low salt, up to 100 mM NaCl in titration); conditions: protein: recombinant; tags: tags removed by thrombin; blunt
Trx-His6-MBD4 MBD (SPR) = Trx-His6-MBD4 MBD (SPR) (Homo sapiens, UniProt O95243 80-148); assay: SPR; SPR running buffer: 10 mM HEPES pH 7.4, 50 mM NaCl, 3 mM MgCl2, 0.1 mM EDTA, 1 mM DTT, 0.1% BSA, 0.005% polysorbate 20 (samples prepared at pH 6.5); temperature not given; NMR buffer not given (low salt, up to 100 mM NaCl in titration); conditions: protein: recombinant, tags: N-terminal thioredoxin and His6 fusion (modified pET32a), retained for SPR, label: 3' biotin on strand 1 (SPR only), blunt
[2] = target: Trx-His6-MBD4 MBD Y109F (SPR) (Homo sapiens, UniProt O95243 80-148, Y109F); assay: as above; conditions: protein: recombinant, tags: N-terminal thioredoxin and His6 fusion, retained for SPR, label: 3' biotin on strand 1 (SPR only), blunt
cMBD2 MBD (NMR) [3] = target: T1, cMBD2 MBD (NMR); assay: NMR (TROSY HSQC); fast exchange between sites; SPR running buffer: 10 mM HEPES pH 7.4, 50 mM NaCl, 3 mM MgCl2, 0.1 mM EDTA, 1 mM DTT, 0.1% BSA, 0.005% polysorbate 20 (samples prepared at pH 6.5); temperature not given; NMR buffer not given (low salt, up to 100 mM NaCl in titration); conditions: protein: recombinant; tags: tags removed by thrombin; blunt
cMBD2 MBD (NMR) [4] = target: T1, cMBD2 MBD (NMR); assay: NMR (TROSY HSQC); slow to intermediate exchange between sites; SPR running buffer: 10 mM HEPES pH 7.4, 50 mM NaCl, 3 mM MgCl2, 0.1 mM EDTA, 1 mM DTT, 0.1% BSA, 0.005% polysorbate 20 (samples prepared at pH 6.5); temperature not given; NMR buffer not given (low salt, up to 100 mM NaCl in titration); conditions: protein: recombinant; tags: tags removed by thrombin; blunt
[5] = one G:T mismatch (strand 1 G10, strand 2 T8)

Trx-His6-MBD4 MBD Y109F (SPR), sequence (O95243 80-148 Y109F): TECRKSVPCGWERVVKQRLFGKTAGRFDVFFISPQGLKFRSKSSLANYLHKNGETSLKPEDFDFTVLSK
T1 sequence (Q5EFL0 entry or part of it): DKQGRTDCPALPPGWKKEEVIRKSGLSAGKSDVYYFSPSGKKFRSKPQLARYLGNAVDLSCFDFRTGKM
Trx-His6-MBD4 MBD (SPR), sequence (O95243 80-148): as the sequence (O95243 80-148 Y109F) above, with F30Y counted along it

B1: mCpG (10 bp), wild-type (dsDNA)
DNA 1: GGATCGGCTC
DNA 2: GAGCCGATCC
modifications: 5-methyl-C at position 5 of both strands
B1: binds (cMBD2 MBD (NMR) [1]).

B2: Inverted (10 bp) (dsDNA)
DNA 1: GGACCGACTC
DNA 2: GAGTCGGTCC
modifications: 5-methyl-C at position 5 of both strands
B2: binds (cMBD2 MBD (NMR) [1]).

B3: mCpG (17 bp) (dsDNA)
DNA 1: GAGGCGCTCGGCGGCAG
DNA 2: CTGCCGCCGAGCGCCTC
modifications: 5-methyl-C at strand 1 position 9 and strand 2 position 8
B3 was tested, and the Kd (Trx-His6-MBD4 MBD (SPR)) was 6.4 ± 1.5 µM and the Kd [2] was 7.9 ± 1.6 µM.

B4: CpG (17 bp) (dsDNA)
DNA 1: GAGGCGCTCGGCGGCAG
DNA 2: CTGCCGCCGAGCGCCTC
With B4 the Kd [2] was 19.6 ± 3.5 µM.

B5: Tandem (20 bp) (dsDNA)
DNA 1: GGATCGGCTCGGACCGACTC
DNA 2: GAGTCGGTCCGAGCCGATCC
modifications: 5-methyl-C at strand 1 positions 5 and 15 and strand 2 positions 5 and 15
B5: binds (cMBD2 MBD (NMR) [3]).

B6: mCpG/TpG mismatch (17 bp) (dsDNA)
DNA 1: GAGGCGCTCGGCGGCAG
DNA 2: CTGCCGCTGAGCGCCTC
modifications: 5-methyl-C at strand 1 position 9
B6 gave a Kd (Trx-His6-MBD4 MBD (SPR); [5]) of 11.5 ± 1.2 µM and a Kd [2, 5] of 14 ± 1.4 µM.

B7: Tandem (30 bp) (dsDNA)
DNA 1: CACGGATCGGCTCCCCCGAGTCGGTCCCGC
DNA 2: GCGGGACCGACTCGGGGGAGCCGATCCGTG
modifications: 5-methyl-C at strand 1 positions 8 and 22 and strand 2 positions 8 and 22
B7: binds (cMBD2 MBD (NMR) [4]).

B8: hmCpG (17 bp) (dsDNA)
DNA 1: GAGGCGCTCGGCGGCAG
DNA 2: CTGCCGCCGAGCGCCTC
modifications: 5-hydroxymethyl-C at strand 1 position 9 and strand 2 position 8
Binder B8 has a Kd [2] of 16 ± 3 µM.
